From patent US20100003258A1 (AVEO PHARMACEUTICALS, published 2010)

Columns and labels:
[1] = target: T1, recombinant human FGFR3 IIIc Fc fusion protein (human, UniProt P22607 23-375); test: kinetic exclusion assay (KinExA), antibody and rhFGFR3 IIIc Fc in solution, room temperature
T1 construct: Bought reagent; also called rhFGFR3 IIIc Fc; not shown: Fc fragment (removable by Factor Xa)
T1 sequence (looked up): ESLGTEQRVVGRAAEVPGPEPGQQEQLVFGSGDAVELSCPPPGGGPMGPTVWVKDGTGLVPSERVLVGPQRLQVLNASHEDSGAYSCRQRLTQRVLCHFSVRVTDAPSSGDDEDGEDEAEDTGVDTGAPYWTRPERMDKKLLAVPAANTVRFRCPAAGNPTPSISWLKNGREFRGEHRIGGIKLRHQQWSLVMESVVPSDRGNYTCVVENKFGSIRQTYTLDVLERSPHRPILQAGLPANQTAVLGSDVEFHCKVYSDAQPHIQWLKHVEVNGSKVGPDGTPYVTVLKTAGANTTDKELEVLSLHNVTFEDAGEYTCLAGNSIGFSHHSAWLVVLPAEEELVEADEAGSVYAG
Method: The binding affinities of monoclonal 15D8, chimeric 15D8, and humanized 15D8 antibodies for recombinant human FGFR3 IIIc Fc fusion protein was measured using a kinetic exclusion assay, KinExA® technology (Sapidyne Instruments, Inc.). First, beads were prepared for the purpose of detecting anti-FGFR3 antibody that is unbound to FGFR3 IIIc Fc. This was done by adding 1 ml recombinant human FGFR3IIIc Fc (R&D Systems, Inc.) 10 ug/ml in PBS to 200 mg polymethyl methacrylate (PMMA) hard beads. The suspension was mixed and rotated for two hours at room temperature. Next, the mixture was centrifuged and supernatant was discarded. The bead pellet was rinsed once with 1 ml BSA 10 mg/ml in PBS by incubation for 1 hour at room temperature with rotation. The beads were resuspended in 27 ml PBS with 0.02% NaN₃. Next, a fixed concentration of anti-FGFR3 antibody (0.5 nM) was incubated in solution with a series of FGFR3 IIIc Fc concentrations (started with 50 nM (in PBS BSA (1 mg/ml)) and serially diluted 1:2 in PBS BSA(1 mg/ml) to obtain 50 to 0.0122 nM FGFR3 III Fc) at room temperature for at least 4 hours to allow equilibrium to be reached. By measuring the amount of anti-FGFR3 antibody that is not bound to FGFR3 IIIc Fc, the KD was determined. Unbound anti-FGFR3 antibody was detected by allowing the anti-FGFR3 antibody/FGFR3 IIIc Fc solution to flow through the FGFR3 IIIc Fc PMMA beads. The anti-FGFR3 antibody captured by these beads was then detected with Cy5-conjugated anti-human secondary antibody 0.3 ug/ml (Jackson ImmunoResearch) or Cy5-conjugated anti-mouse secondary antibody (Jackson ImmunoResearch) 0.5 ug/ml in PBS BSA 1 mg/ml. The detected signal for captured anti-FGFR3 antibody is directly proportional to the remaining free binding sites, thus allowing KD determination. The experiments were repeated, varying the concentrations of anti-FGFR3 antibody or FGFR3 III Fc used in solution, and the KD was calculated with the KinExA® software using n-curve analysis.

[2] = target: T1, recombinant human FGFR3 IIIc Fc fusion …; test: SPR (Biacore T100), antibody captured on anti-mouse Ig, rhFGFR3 IIIc Fc as analyte, 25 C
Method: The binding affinities and kinetics of interaction of the monoclonal antibodies (15D8, 27H2, 2G4, and 4E7(7D12)) produced in Example 1 against recombinant human FGFR3 (IIIb and IIIc isoforms) Fc fusion protein (rhFGFR3 IIIb Fc or rhFGFR3 IIIc Fc) were measured by surface plasmon resonance using a Biacore™ T100 (Biacore) instrument.
Rabbit anti-mouse immunoglobulins (Biacore, Catalog No. BR-1005-14) were immobilized on carboxymethylated dextran CM4 sensor chips (Biacore, Catalog No. BR-1005-34) by amine coupling (Biacore, Catalog No. BR-1000-50) using a standard coupling protocol according to manufacturer's instructions.
The antibodies were captured in an individual flow cell at a flow rate of 10 μl/min. Injection time was varied for each antibody to yield approximately 40-50 RU of antibody captured for each cycle. Buffer or rhFGFR3 IIIb Fc (R&D Systems, Catalog No. 1264-FR-050) or rhFGFR3 IIIc Fc (R&D Systems, Catalog No. 766-FR-050) diluted in running buffer was injected sequentially over a reference surface (no antibody captured) and the active surface (antibody to be tested) for 300 sec at 60 μl/min. The dissociation phase was monitored for 30 minutes. The surface was then regenerated with two 60-seconds injection of 10 mM Glycine-HCl, pH 1.7 (made from Glycine pH 1.5 (Biacore, Catalog No. BR-1003-54) and pH 2.0 (Biacore, Catalog No. BR-1003-55)) at a flow rate of 60 μl/min. rhFGFR3 Fc concentrations tested were 0.62 nM to 40 nM.

- Kd [1]: 0.0806 nM
- Kd [2]: 2.2 nM
- koff [2]: 0.0002 s⁻¹
- kon [2]: 93000 M⁻¹ s⁻¹
B1: anti-FGFR3 monoclonal antibody 15D8 (antibody, mouse IgG1, kappa)
heavy: EIQLQQSGPELVKPGASVKVSCKASGYAFTSYNMYWVKQSHGKSLEWIGYIDPYNGGTSYNQKFKGKATLTVDKSSSTAYMHLNSLTSEDSAVYYCAREGGNYEAWFAYWGQGTLVTVSAAKTTPPSVYPLAPGSAAQTNSMVTLGCLVKGYFPEPVTVTWNSGSLSSGVHTFPAVLQSDLYTLSSSVTVPSSTWPSETVTCNVAHPASSTKVDKKIVPRDCGCKPCICTVPEVSSVFIFPPKPKDVLTITLTPKVTCVVVDISKDDPEVQFSWFVDDVEVHTAQTQPREEQFNSTFRSVSELPIMHQDWLNGKEFKCRVNSAAFPAPIEKTISKTKGRPKAPQVYTIPPPKEQMAKDKVSLTCMITDFFPEDITVEWQWNGQPAENYKNTQPIMDTDGSYFVYSKLNVQKSNWEAGNTFTCSVLHEGLHNHHTEKSLSHSPGK
light: QIVLTQSPALMSASPGEKVTMTCSASSSVSYMYWYQQKPRSSPKPWIYLTSYLASGVPARFSGSGSGTSYSLTISSMEAEDAATYYCQQWSSYPLTFGAGTKLELKRADAAPTVSIFPPSSEQLTSGGASVVCFLNNFYPKDINVKWKIDGSERQNGVLNSWTDQDSKDSTYSMSSTLTLTKDEYERHNSYTCEATHKTSTSPIVKSFNRNEC
notes: also called 15D8 IgG1; murine antibody 15D8
